Target: T1, Npl4 (untagged, of the Ufd1/Npl4 cofactor complex) (S. cerevisiae, UniProt P33755 1-580)
T1 sequence: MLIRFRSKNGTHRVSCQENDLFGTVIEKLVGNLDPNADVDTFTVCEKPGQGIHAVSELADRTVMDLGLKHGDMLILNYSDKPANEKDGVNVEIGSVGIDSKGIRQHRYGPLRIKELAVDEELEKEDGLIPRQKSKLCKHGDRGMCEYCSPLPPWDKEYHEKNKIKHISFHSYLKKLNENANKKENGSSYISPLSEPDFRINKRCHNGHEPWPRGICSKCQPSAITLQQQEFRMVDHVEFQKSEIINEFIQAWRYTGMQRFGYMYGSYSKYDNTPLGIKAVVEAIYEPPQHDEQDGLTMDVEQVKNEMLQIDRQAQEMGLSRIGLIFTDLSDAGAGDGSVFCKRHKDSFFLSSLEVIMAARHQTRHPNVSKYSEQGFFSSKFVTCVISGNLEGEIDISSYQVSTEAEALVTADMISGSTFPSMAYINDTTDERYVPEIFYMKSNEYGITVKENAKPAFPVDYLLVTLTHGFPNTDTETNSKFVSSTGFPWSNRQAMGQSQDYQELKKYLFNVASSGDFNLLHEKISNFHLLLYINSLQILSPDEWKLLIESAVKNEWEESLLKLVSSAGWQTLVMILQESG
Assay: cryo-EM structure

binding result: binds
B1: Ufd1 (untagged, of the Ufd1/Npl4 cofactor complex) (natural protein, S. cerevisiae, UniProt P53044 1-361, looked up)
chain: MFSGFSSFGGGNGFVNMPQTFEEFFRCYPIAMMNDRIRKDDANFGGKIFLPPSALSKLSMLNIRYPMLFKLTANETGRVTHGGVLEFIAEEGRVYLPQWMMETLGIQPGSLLQISSTDVPLGQFVKLEPQSVDFLDISDPKAVLENVLRNFSTLTVDDVIEISYNGKTFKIKILEVKPESSSKSICVIETDLVTDFAPPVGYVEPDYKALKAQQDKEKKNSFGKGQVLDPSVLGQGSMSTRIDYAGIANSSRNKLSKFVGQGQNISGKAPKAEPKQDIKDMKITFDGEPAKLDLPEGQLFFGFPMVLPKEDEESAAGSKSSEQNFQGQGISLRKSNKRKTKSDHDSSKSKAPKSPEVIEID

From PMC6980381 (Science (New York, N.Y.), 2019)
